According to article PMC6748273:

What was measured:
Experiment in all cases: purified protein
Settings in all cases: 1.2 mM L-Trp, 25 mM Tris, 5 mM MgCl2, 50 mM KCl, pH 7.5, 35 °C
purified protein [1] = substrate: CC(C)=CCOP(=O)(O)OP(=O)(O)O
purified protein [2] = substrate: C/C(Br)=C/COP(=O)(O)OP(=O)(O)O
purified protein [3] = substrate: COc1cccc(COP(=O)(O)OP(=O)(O)O)c1
purified protein [4] = substrate: O=P(O)(O)OP(=O)(O)OCc1ccccc1
purified protein [5] = substrate: O=P(O)(O)OP(=O)(O)OCc1ccc(Cl)cc1
purified protein [6] = substrate: O=P(O)(O)OP(=O)(O)OCc1ccc(Br)cc1
purified protein [7] = substrate: CCC(=CCOP(=O)(O)OP(=O)(O)O)CC
purified protein [8] = substrate: O=P(O)(O)OP(=O)(O)OCC=C1CCCC1
purified protein [9] = substrate: O=P(O)(O)OP(=O)(O)OCc1ccc(F)cc1
purified protein [10] = substrate: COc1ccccc1COP(=O)(O)OP(=O)(O)O
purified protein [11] = substrate: CC=CCOP(=O)(O)OP(=O)(O)O

B1: FgaPT2 (Aspergillus fumigatus Af293) (protein)
chain: MKAANASSAEAYRVLSRAFRFDNEDQKLWWHSTAPMFAKMLETANYTTPCQYQYLITYKECVIPSLGCYPTNSAPRWLSILTRYGTPFELSLNCSNSIVRYTFEPINQHTGTDKDPFNTHAIWESLQHLLPLEKSIDLEWFRHFKHDLTLNSEESAFLAHNDRLVGGTIRTQNKLALDLKDGRFALKTYIYPALKAVVTGKTIHELVFGSVRRLAVREPRILPPLNMLEEYIRSRGSKSTASPRLVSCDLTSPAKSRIKIYLLEQMVSLEAMEDLWTLGGRRRDASTLEGLSLVRELWDLIQLSPGLKSYPAPYLPLGVIPDERLPLMANFTLHQNDPVPEPQVYFTTFGMNDMAVADALTTFFERRGWSEMARTYETTLKSYYPHADHDKLNYLHAYISFSYRDRTPYLSVYLQSFETGDWAVANLSESKVKCQDAACQPTSLPPDLSKTGVYYSGLH
- kcat (purified protein [1]): 0.833 ± 0.0167 s⁻¹
- kcat/Km (purified protein [1]): 5820 ± 467 M⁻¹ s⁻¹
- kcat (purified protein [2]): 0.00783 ± 0.000167 s⁻¹
- kcat/Km (purified protein [2]): 21.7 ± 1.67 M⁻¹ s⁻¹
- kcat (purified protein [3]): 0.00283 ± 8.33e-05 s⁻¹
- kcat/Km (purified protein [3]): 3.83 ± 0.333 M⁻¹ s⁻¹
- kcat (purified protein [4]): 0.0227 ± 0.000333 s⁻¹
- kcat/Km (purified protein [4]): 103 ± 5 M⁻¹ s⁻¹
- kcat (purified protein [5]): 0.00327 ± 6.67e-05 s⁻¹
- kcat/Km (purified protein [5]): 7.67 ± 0.5 M⁻¹ s⁻¹
- kcat (purified protein [6]): 0.00223 ± 5e-05 s⁻¹
- kcat/Km (purified protein [6]): 7 ± 0.667 M⁻¹ s⁻¹
- kcat (purified protein [7]): 0.108 ± 0.00167 s⁻¹
- kcat/Km (purified protein [7]): 283 ± 16.7 M⁻¹ s⁻¹
- kcat (purified protein [8]): 0.084 ± 0.003 s⁻¹
- kcat/Km (purified protein [8]): 267 ± 33.3 M⁻¹ s⁻¹
- kcat (purified protein [9]): 0.0046 ± 6.67e-05 s⁻¹
- kcat/Km (purified protein [9]): 11.5 ± 0.667 M⁻¹ s⁻¹
- kcat (purified protein [10]): 0.0322 ± 0.000833 s⁻¹
- kcat/Km (purified protein [10]): 56.7 ± 3.33 M⁻¹ s⁻¹
- kcat (purified protein [11]): 0.0095 ± 0.000333 s⁻¹
- kcat/Km (purified protein [11]): 65 ± 6.67 M⁻¹ s⁻¹
